From patent publication US20060257938A1, “Method of screening for drugs that block ligand binding to a lipid binding protein” (priority 2005, published 2006)
Positions count from the first letter of the chain named.

B1: 18V 31Y 55I 73G 72A (protein, listed as Rattus norvegicus)
chain: AFDGTWKVDRNENYEKFVEKMGINVVKRKLYAHDNLKLTITQEGNKFTVKESSNIRNIDVVFELGVDFAYSAGDGTELTGTWTMEGNKLVGKFKRVDNGKELIAVREISGNELIQTYTYEGVEAKRIFKKE
modifications: PEPTIDE (1)...(131) wild-type rat intestinal fatty acid binding protein
B2: 18G 31F 73L 72A (protein, listed as Rattus norvegicus)
chain: B1 chain with V18G, Y31F, I55F, G73L
modifications: PEPTIDE (1)...(131) wild-type rat intestinal fatty acid binding protein
B3: 18I 31F 73V 72A (protein, listed as Rattus norvegicus)
chain: B1 chain with V18I, Y31F, I55F, G73V
modifications: PEPTIDE (1)...(131) wild-type rat intestinal fatty acid binding protein
B4: 38M 104S 115A 74F 72A (protein, listed as Rattus norvegicus)
chain: B1 chain with V18M, Y31G, L38M, I55F, G73A, D74F, A104S, Q115A
modifications: PEPTIDE (1)...(131) wild-type rat intestinal fatty acid binding protein
B5: 18V 31I 55L 73V 72A (protein, listed as Rattus norvegicus)
chain: B1 chain with Y31I, I55L, G73V
modifications: PEPTIDE (1)...(131) wild-type rat intestinal fatty acid binding protein
B6: 14A 18Y 31W 73G 117V 72A (protein, listed as Rattus norvegicus)
chain: B1 chain with Y14A, V18Y, Y31W, I55F, Y117V
modifications: PEPTIDE (1)...(131) wild-type rat intestinal fatty acid binding protein
B7: 18V 31Y 73V 72A (protein, listed as Rattus norvegicus)
chain: B1 chain with I55F, G73V
modifications: PEPTIDE (1)...(131) wild-type rat intestinal fatty acid binding protein
B8: 18I 31Y 73I 72A (protein, listed as Rattus norvegicus)
chain: B1 chain with V18I, I55F, G73I
modifications: PEPTIDE (1)...(131) wild-type rat intestinal fatty acid binding protein
B9: 14L 18L 31Y 73L 117A 72A (protein, listed as Rattus norvegicus)
chain: B1 chain with Y14L, V18L, I55F, G73L, Y117A
modifications: PEPTIDE (1)...(131) wild-type rat intestinal fatty acid binding protein
B10: 14Q 18S 73I 117W 72A (protein, listed as Rattus norvegicus)
chain: B1 chain with Y14Q, V18S, Y31G, I55F, G73I, Y117W
modifications: PEPTIDE (1)...(131) wild-type rat intestinal fatty acid binding protein
B11: 18L 73F 117G 72A (protein, listed as Rattus norvegicus)
chain: B1 chain with V18L, Y31G, I55F, G73F, Y117G
modifications: PEPTIDE (1)...(131) wild-type rat intestinal fatty acid binding protein
B12: 104T 115A 74F 72A (protein, listed as Rattus norvegicus)
chain: B1 chain with V18M, Y31G, I55F, G73A, D74F, A104T, Q115A
modifications: PEPTIDE (1)...(131) wild-type rat intestinal fatty acid binding protein

Assay: Probe fluorescence ratio response to arachidonic acid relative to ADIFAB2
Assay type: binding
Conditions: arachidonic acid; response relative to ADIFAB2
Outline: (§1)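 Each fatty acid's response was expressed relative to ADIFAB2, the rI-FABP-L72A probe, as ΔR/ΔRreference. ΔR is the change in the background-corrected two-wavelength intensity ratio R=Fλ1/Fλ2 from its analyte-free baseline R0. Emission was read near about 420-480 nm for unbound and about 495-580 nm for FFA-bound probe.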

Row | Molecule | DR/DR AA
1 | B1 | 1.007
2 | B2 | 1.785
3 | B3 | 2.649
4 | B4 | 1.690
5 | B5 | 2.273
6 | B6 | 0.365
7 | B7 | 2.400
8 | B8 | 2.487
9 | B9 | 2.987
10 | B10 | 0.878
11 | B11 | 2.445
12 | B12 | 2.635

Assay: Probe fluorescence ratio response to linolenic acid relative to ADIFAB2
Assay type: binding
Conditions: response relative to ADIFAB2
Outline: as §1

Row | Molecule | DR/DR LNA
13 | B1 | 1.228
14 | B2 | 1.235
15 | B3 | 2.738
16 | B4 | 1.615
17 | B5 | 2.433
18 | B6 | 0.940
19 | B7 | 2.605
20 | B8 | 2.865
21 | B9 | 2.818
22 | B10 | 0.894
23 | B11 | 1.913
24 | B12 | 2.206

Assay: Probe fluorescence ratio response to linoleic acid relative to ADIFAB2
Assay type: binding
Conditions: response relative to ADIFAB2
Outline: as §1

Row | Molecule | DR/DR LA
25 | B1 | 1.220
26 | B2 | 1.520
27 | B3 | 3.096
28 | B4 | 1.778
29 | B5 | 2.680
30 | B6 | 1.018
31 | B7 | 2.780
32 | B8 | 3.031
33 | B9 | 2.948
34 | B10 | 0.784
35 | B11 | 2.283
36 | B12 | 2.231

Assay: Probe fluorescence ratio response to oleic acid relative to ADIFAB2
Assay type: binding
Conditions: response relative to ADIFAB2
Outline: as §1

Row | Molecule | DR/DR OA
37 | B1 | 0.994
38 | B2 | 1.365
39 | B3 | 2.257
40 | B4 | 1.155
41 | B5 | 2.254
42 | B6 | 0.518
43 | B7 | 2.349
44 | B8 | 2.322
45 | B9 | 1.908
46 | B10 | 0.809
47 | B11 | 1.908
48 | B12 | 1.621

Assay: Probe fluorescence ratio response to palmitic acid relative to ADIFAB2
Assay type: binding
Conditions: response relative to ADIFAB2
Outline: as §1

Row | Molecule | DR/DR PA
49 | B1 | 0.780
50 | B2 | 1.025
51 | B3 | 1.893
52 | B4 | 0.498
53 | B5 | 1.253
54 | B6 | 0.421
55 | B7 | 1.534
56 | B8 | 1.825
57 | B9 | 1.444
58 | B10 | 0.559
59 | B11 | 1.039
60 | B12 | 0.720

Assay: Probe fluorescence ratio response to palmitoleic acid relative to ADIFAB2
Assay type: binding
Conditions: response relative to ADIFAB2
Outline: as §1

Row | Molecule | DR/DR POA
61 | B1 | 1.106
62 | B2 | 1.235
63 | B3 | 2.665
64 | B4 | 1.172
65 | B5 | 2.285
66 | B6 | 0.883
67 | B7 | 2.376
68 | B8 | 2.620
69 | B9 | 2.317
70 | B10 | 0.834
71 | B11 | 1.731
72 | B12 | 1.661

Assay: Probe fluorescence ratio response to stearic acid relative to ADIFAB2
Assay type: binding
Conditions: response relative to ADIFAB2
Outline: as §1

Row | Molecule | DR/DR SA
73 | B1 | −0.094
74 | B2 | 1.690
75 | B3 | 1.294
76 | B4 | 0.356
77 | B5 | 1.233
78 | B6 | 0.158
79 | B7 | 1.330
80 | B8 | 1.310
81 | B9 | 0.762
82 | B10 | −0.044
83 | B11 | 0.663
84 | B12 | 0.877
